Results: publication PMC11087509, “Multimodal binding and inhibition of bacterial ribosomes by the antimicrobial peptides Api137 and Api88” (Nature Communications, 2024)
[ ]: non-standard residue; d: D form.

Target: purified E. coli 30S ribosomal subunit (E. coli (endogenous in MRE600))
Assay: fluorescence polarisation; cf-labeled peptide (10 µL of 40 nmol/L) added to a 2-fold dilution series (22 steps, 10 µL) of pure 70S ribosome, 50S or 30S subunit; ribosome preparation buffer (20 mmol/L HEPES-KOH, 6 mmol/L MgCl2, 30 mmol/L NH4Cl, pH 7.6); 28 ± 1 °C, 90 min; apparent Kd (average over at least two or three sites)

{5(6)‑carboxyfluorescein}-VDKPPYLPRPRPPR[dR]IYN[dR]-NH2 [cf-Onc112 (5(6)-carboxyfluorescein-labeled Onc112, …rIYNr-NH2)]
fold weaker binding than to the 50S subunit: 23 fold
